# Measurements published in the supplement of paper PMC9112550, “Optimization of the antimicrobial peptide Bac7 by deep mutational scanning” (BMC Biology, 2022).
# System: Escherichia coli TOP10
# Assay: shrunken log2 fold change of peptide-encoding DNA abundance (4.5 h post-induction vs induction); higher = less antimicrobial activity (less host growth inhibition)
# Settings: time post-induction: 4.5 h; library: site-saturation at positions 5, 18, 19, 20
# 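Further: peptides expressed intracellularly from a pBAD plasmid library in pooled LB shake-flask culture, induced with 0.3% L-arabinose, DNA abundance read by NGS, three biological replicates, DESeq2 with apeglm shrinkage.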
row,Sequence,shrunken log2 fold change
1,RRIRMRPPRLPRPRPRPKFGPRP,-0.0062
2,RRIRSRPPRLPRPRPRPIIGPRP,-0.276
3,RRIRNRPPRLPRPRPRPWYEPRP,-0.0232
4,RRIRGRPPRLPRPRPRPTRLPRP,0.939
5,RRIRMRPPRLPRPRPRPTMQPRP,0.566
6,RRIRGRPPRLPRPRPRPDLGPRP,0.688
7,RRIRRRPPRLPRPRPRPMDWPRP,0.516
8,RRIRMRPPRLPRPRPRPCGDPRP,0.34
9,RRIRHRPPRLPRPRPRPSELPRP,0.0169
10,RRIRQRPPRLPRPRPRPQMCPRP,0.109
11,RRIRPRPPRLPRPRPRPQADPRP,0.154
12,RRIRCRPPRLPRPRPRPGLRPRP,0.147
13,RRIRYRPPRLPRPRPRPVIGPRP,-0.661
14,RRIRSRPPRLPRPRPRPKQIPRP,0.0712
15,RRIRIRPPRLPRPRPRPPRLPRP,0.256
16,RRIRTRPPRLPRPRPRPIQLPRP,-0.122
17,RRIRMRPPRLPRPRPRPPELPRP,0.372
18,RRIRMRPPRLPRPRPRPSQLPRP,-0.0454
19,RRIRCRPPRLPRPRPRPNQNPRP,-0.437
20,RRIRTRPPRLPRPRPRPHRRPRP,0.0892
21,RRIRQRPPRLPRPRPRPKDFPRP,-0.00088
22,RRIRERPPRLPRPRPRPREIPRP,0.214
23,RRIRMRPPRLPRPRPRPSYEPRP,-0.293
24,RRIRERPPRLPRPRPRPRYPPRP,0.00273
25,RRIRIRPPRLPRPRPRPMVIPRP,-0.154

row,Sequence,shrunken log2 fold change
1,RRIRKRPPRLPRPRPRPPWFPRP,0.309
2,RRIRGRPPRLPRPRPRPMPDPRP,0.13
3,RRIRGRPPRLPRPRPRPFMEPRP,-0.114
4,RRIRGRPPRLPRPRPRPCFVPRP,0.319
5,RRIRHRPPRLPRPRPRPLFWPRP,0.274
6,RRIRQRPPRLPRPRPRPYQIPRP,-0.227
7,RRIRIRPPRLPRPRPRPMVFPRP,-0.263
8,RRIRFRPPRLPRPRPRPSCIPRP,-0.603
9,RRIRWRPPRLPRPRPRPPIRPRP,-0.0117
10,RRIRWRPPRLPRPRPRPGYYPRP,-0.125
11,RRIRDRPPRLPRPRPRPYNEPRP,-0.0252
12,RRIRPRPPRLPRPRPRPPCPPRP,0.294
13,RRIRQRPPRLPRPRPRPNMNPRP,-0.528
14,RRIRFRPPRLPRPRPRPLRGPRP,0.607
15,RRIRFRPPRLPRPRPRPHVCPRP,-0.0299
16,RRIRGRPPRLPRPRPRPYIAPRP,-0.391
17,RRIRLRPPRLPRPRPRPLQRPRP,0.0926
18,RRIRLRPPRLPRPRPRPNQMPRP,-0.437
19,RRIRQRPPRLPRPRPRPTAGPRP,0.144
20,RRIRHRPPRLPRPRPRPYAWPRP,-0.0931
21,RRIRHRPPRLPRPRPRPEIIPRP,-0.496
22,RRIRVRPPRLPRPRPRPDARPRP,0.262
23,RRIRFRPPRLPRPRPRPTWHPRP,-0.0992
24,RRIRRRPPRLPRPRPRPRPDPRP,0.855
25,RRIRSRPPRLPRPRPRPHMIPRP,-0.961

row,Sequence,shrunken log2 fold change
1,RRIRDRPPRLPRPRPRPDWIPRP,0.189
2,RRIRARPPRLPRPRPRPWAFPRP,0.222
3,RRIRVRPPRLPRPRPRPPRAPRP,0.641
4,RRIRHRPPRLPRPRPRPFWMPRP,-0.0444
5,RRIRHRPPRLPRPRPRPSIQPRP,-0.344
6,RRIRHRPPRLPRPRPRPPTFPRP,-0.0769
7,RRIRARPPRLPRPRPRPCHCPRP,0.164
8,RRIRSRPPRLPRPRPRPPSKPRP,0.0454
9,RRIRFRPPRLPRPRPRPDWWPRP,-0.0896
10,RRIRCRPPRLPRPRPRPIITPRP,-0.892
11,RRIRRRPPRLPRPRPRPRFVPRP,0.375
12,RRIRGRPPRLPRPRPRPWWDPRP,-0.145
13,RRIRFRPPRLPRPRPRPVYPPRP,-0.477
14,RRIRQRPPRLPRPRPRPINMPRP,-0.28
15,RRIRKRPPRLPRPRPRPYDYPRP,-0.0386
16,RRIRYRPPRLPRPRPRPHQWPRP,-0.649
17,RRIRHRPPRLPRPRPRPAKPPRP,0.533
18,RRIRKRPPRLPRPRPRPGHWPRP,0.2
19,RRIRNRPPRLPRPRPRPRHWPRP,0.133
20,RRIRFRPPRLPRPRPRPNHLPRP,-1.06
21,RRIRCRPPRLPRPRPRPTDQPRP,0.38
22,RRIRSRPPRLPRPRPRPQAQPRP,-0.121
23,RRIRSRPPRLPRPRPRPGALPRP,0.324
24,RRIRWRPPRLPRPRPRPNSEPRP,-0.071
25,RRIRDRPPRLPRPRPRPHRQPRP,-0.0279
